Assay results taken from paper PMC3113324, “AKAP5 and AKAP12 Form Homo-oligomers” (Journal of Molecular Signaling, 2011).

Tests used:
[1] = target: the molecule itself; assay: SDS-PAGE (SDS-resistant oligomers); purified His-tagged proteins resolved on SDS-PAGE without urea; Coomassie staining and immunoblotting
[2] = target: the molecule itself; assay: SDS-PAGE (SDS-resistant oligomers); whole-cell lysates of HEK293 cells on SDS-PAGE without urea; immunoblot with anti-HA or anti-AKAP12; cells also treated with isoproterenol (10 uM, 0, 5, 30 min), KT5720, PD98059 or Rolipram (45 min)

B1: His-tagged human AKAP12 (natural protein, UniProt Q02952 1-1782, looked up)
chain: MGAGSSTEQRSPEQPPEGSSTPAEPEPSGGGPSAEAAPDTTADPAIAASDPATKLLQKNGQLSTINGVAEQDELSLQEGDLNGQKGALNGQGALNSQEEEEVIVTEVGQRDSEDVSKRDSDKEMATKSAVVHDITDDGQEETPEIIEQIPSSESNLEELTQPTESQANDIGFKKVFKFVGFKFTVKKDKTEKPDTVQLLTVKKDEGEGAAGAGDHKDPSLGAGEAASKESEPKQSTEKPEETLKREQSHAEISPPAESGQAVEECKEEGEEKQEKEPSKSAESPTSPVTSETGSTFKKFFTQGWAGWRKKTSFRKPKEDEVEASEKKKEQEPEKVDTEEDGKAEVASEKLTASEQAHPQEPAESAHEPRLSAEYEKVELPSEEQVSGSQGPSEEKPAPLATEVFDEKIEVHQEEVVAEVHVSTVEERTEEQKTEVEETAGSVPAEELVEMDAEPQEAEPAKELVKLKETCVSGEDPTQGADLSPDEKVLSKPPEGVVSEVEMLSSQERMKVQGSPLKKLFTSTGLKKLSGKKQKGKRGGGDEESGEHTQVPADSPDSQEEQKGESSASSPEEPEEITCLEKGLAEVQQDGEAEEGATSDGEKKREGVTPWASFKKMVTPKKRVRRPSESDKEDELDKVKSATLSSTESTASEMQEEMKGSVEEPKPEEPKRKVDTSVSWEALICVGSSKKRARRGSSSDEEGGPKAMGGDHQKADEAGKDKETGTDGILAGSQEHDPGQGSSSPEQAGSPTEGEGVSTWESFKRLVTPRKKSKSKLEEKSEDSIAGSGVEHSTPDTEPGKEESWVSIKKFIPGRRKKRPDGKQEQAPVEDAGPTGANEDDSDVPAVVPLSEYDAVEREKMEAQQAQKSAEQPEQKAATEVSKELSESQVHMMAAAVADGTRAATIIEERSPSWISASVTEPLEQVEAEAALLTEEVLEREVIAEEEPPTVTEPLPENREARGDTVVSEAELTPEAVTAAETAGPLGAEEGTEASAAEETTEMVSAVSQLTDSPDTTEEATPVQEVEGGVPDIEEQERRTQEVLQAVAEKVKEESQLPGTGGPEDVLQPVQRAEAERPEEQAEASGLKKETDVVLKVDAQEAKTEPFTQGKVVGQTTPESFEKAPQVTESIESSELVTTCQAETLAGVKSQEMVMEQAIPPDSVETPTDSETDGSTPVADFDAPGTTQKDEIVEIHEENEVASGTQSGGTEAEAVPAQKERPPAPSSFVFQEETKEQSKMEDTLEHTDKEVSVETVSILSKTEGTQEADQYADEKTKDVPFFEGLEGSIDTGITVSREKVTEVALKGEGTEEAECKKDDALELQSHAKSPPSPVEREMVVQVEREKTEAEPTHVNEEKLEHETAVTVSEEVSKQLLQTVNVPIIDGAKEVSSLEGSPPPCLGQEEAVCTKIQVQSSEASFTLTAAAEEEKVLGETANILETGETLEPAGAHLVLEEKSSEKNEDFAAHPGEDAVPTGPDCQAKSTPVIVSATTKKGLSSDLEGEKTTSLKWKSDEVDEQVACQEVKVSVAIEDLEPENGILELETKSSKLVQNIIQTAVDQFVRTEETATEMLTSELQTQAHVIKADSQDAGQETEKEGEEPQASAQDETPITSAKEESESTAVGQAHSDISKDMSEASEKTMTVEVEGSTVNDQQLEEVVLPSEEEGGGAGTKSVPEDDGHALLAERIEKSLVEPKEDEKGDDVDDPENQNSALADTDASGGLTKESPDTNGPKQKEKEDAQEVELQEGKVHSESDKAITPQAQEELQKQERESAKSELTES
notes: A-kinase-anchoring protein 12 (AKAP12, gravin, SSECKS), human, full length (1-1782), calculated MW 191.5 kDa; also called gravin; SSECKS; source: E. coli, purified by gel filtration chromatography (Superose 12)
stoichiometry N [1]: 2

B2: HA-AKAP12M3 (S627A, S696-698A, S772A) (natural protein, human, UniProt Q02952 1-1782, looked up)
chain: MGAGSSTEQRSPEQPPEGSSTPAEPEPSGGGPSAEAAPDTTADPAIAASDPATKLLQKNGQLSTINGVAEQDELSLQEGDLNGQKGALNGQGALNSQEEEEVIVTEVGQRDSEDVSKRDSDKEMATKSAVVHDITDDGQEETPEIIEQIPSSESNLEELTQPTESQANDIGFKKVFKFVGFKFTVKKDKTEKPDTVQLLTVKKDEGEGAAGAGDHKDPSLGAGEAASKESEPKQSTEKPEETLKREQSHAEISPPAESGQAVEECKEEGEEKQEKEPSKSAESPTSPVTSETGSTFKKFFTQGWAGWRKKTSFRKPKEDEVEASEKKKEQEPEKVDTEEDGKAEVASEKLTASEQAHPQEPAESAHEPRLSAEYEKVELPSEEQVSGSQGPSEEKPAPLATEVFDEKIEVHQEEVVAEVHVSTVEERTEEQKTEVEETAGSVPAEELVEMDAEPQEAEPAKELVKLKETCVSGEDPTQGADLSPDEKVLSKPPEGVVSEVEMLSSQERMKVQGSPLKKLFTSTGLKKLSGKKQKGKRGGGDEESGEHTQVPADSPDSQEEQKGESSASSPEEPEEITCLEKGLAEVQQDGEAEEGATSDGEKKREGVTPWASFKKMVTPKKRVRRPAESDKEDELDKVKSATLSSTESTASEMQEEMKGSVEEPKPEEPKRKVDTSVSWEALICVGSSKKRARRGAAADEEGGPKAMGGDHQKADEAGKDKETGTDGILAGSQEHDPGQGSSSPEQAGSPTEGEGVSTWESFKRLVTPRKKAKSKLEEKSEDSIAGSGVEHSTPDTEPGKEESWVSIKKFIPGRRKKRPDGKQEQAPVEDAGPTGANEDDSDVPAVVPLSEYDAVEREKMEAQQAQKSAEQPEQKAATEVSKELSESQVHMMAAAVADGTRAATIIEERSPSWISASVTEPLEQVEAEAALLTEEVLEREVIAEEEPPTVTEPLPENREARGDTVVSEAELTPEAVTAAETAGPLGAEEGTEASAAEETTEMVSAVSQLTDSPDTTEEATPVQEVEGGVPDIEEQERRTQEVLQAVAEKVKEESQLPGTGGPEDVLQPVQRAEAERPEEQAEASGLKKETDVVLKVDAQEAKTEPFTQGKVVGQTTPESFEKAPQVTESIESSELVTTCQAETLAGVKSQEMVMEQAIPPDSVETPTDSETDGSTPVADFDAPGTTQKDEIVEIHEENEVASGTQSGGTEAEAVPAQKERPPAPSSFVFQEETKEQSKMEDTLEHTDKEVSVETVSILSKTEGTQEADQYADEKTKDVPFFEGLEGSIDTGITVSREKVTEVALKGEGTEEAECKKDDALELQSHAKSPPSPVEREMVVQVEREKTEAEPTHVNEEKLEHETAVTVSEEVSKQLLQTVNVPIIDGAKEVSSLEGSPPPCLGQEEAVCTKIQVQSSEASFTLTAAAEEEKVLGETANILETGETLEPAGAHLVLEEKSSEKNEDFAAHPGEDAVPTGPDCQAKSTPVIVSATTKKGLSSDLEGEKTTSLKWKSDEVDEQVACQEVKVSVAIEDLEPENGILELETKSSKLVQNIIQTAVDQFVRTEETATEMLTSELQTQAHVIKADSQDAGQETEKEGEEPQASAQDETPITSAKEESESTAVGQAHSDISKDMSEASEKTMTVEVEGSTVNDQQLEEVVLPSEEEGGGAGTKSVPEDDGHALLAERIEKSLVEPKEDEKGDDVDDPENQNSALADTDASGGLTKESPDTNGPKQKEKEDAQEVELQEGKVHSESDKAITPQAQEELQKQERESAKSELTES
notes: AKAP12, human, with alanine substitution of the protein kinase A phosphorylation sites; source: HEK293, transfected (pcDNA3.1), in whole-cell lysate
stoichiometry N [2]: 2

B3: His-tagged AKAP12 (840-1782) (domain or fragment, human, UniProt Q02952 840-1782, looked up)
chain: DSDVPAVVPLSEYDAVEREKMEAQQAQKSAEQPEQKAATEVSKELSESQVHMMAAAVADGTRAATIIEERSPSWISASVTEPLEQVEAEAALLTEEVLEREVIAEEEPPTVTEPLPENREARGDTVVSEAELTPEAVTAAETAGPLGAEEGTEASAAEETTEMVSAVSQLTDSPDTTEEATPVQEVEGGVPDIEEQERRTQEVLQAVAEKVKEESQLPGTGGPEDVLQPVQRAEAERPEEQAEASGLKKETDVVLKVDAQEAKTEPFTQGKVVGQTTPESFEKAPQVTESIESSELVTTCQAETLAGVKSQEMVMEQAIPPDSVETPTDSETDGSTPVADFDAPGTTQKDEIVEIHEENEVASGTQSGGTEAEAVPAQKERPPAPSSFVFQEETKEQSKMEDTLEHTDKEVSVETVSILSKTEGTQEADQYADEKTKDVPFFEGLEGSIDTGITVSREKVTEVALKGEGTEEAECKKDDALELQSHAKSPPSPVEREMVVQVEREKTEAEPTHVNEEKLEHETAVTVSEEVSKQLLQTVNVPIIDGAKEVSSLEGSPPPCLGQEEAVCTKIQVQSSEASFTLTAAAEEEKVLGETANILETGETLEPAGAHLVLEEKSSEKNEDFAAHPGEDAVPTGPDCQAKSTPVIVSATTKKGLSSDLEGEKTTSLKWKSDEVDEQVACQEVKVSVAIEDLEPENGILELETKSSKLVQNIIQTAVDQFVRTEETATEMLTSELQTQAHVIKADSQDAGQETEKEGEEPQASAQDETPITSAKEESESTAVGQAHSDISKDMSEASEKTMTVEVEGSTVNDQQLEEVVLPSEEEGGGAGTKSVPEDDGHALLAERIEKSLVEPKEDEKGDDVDDPENQNSALADTDASGGLTKESPDTNGPKQKEKEDAQEVELQEGKVHSESDKAITPQAQEELQKQERESAKSELTES
notes: AKAP12, human, C-terminal fragment, residues 840-1782, in pET28b(+); also called C-terminal (840-1782) fragment of AKAP12; source: E. coli, purified (Ni-NTA)
stoichiometry N [1]: 2

B4: His-tagged AKAP12 (1-840) (domain or fragment, human, UniProt Q02952 1-840, looked up)
chain: MGAGSSTEQRSPEQPPEGSSTPAEPEPSGGGPSAEAAPDTTADPAIAASDPATKLLQKNGQLSTINGVAEQDELSLQEGDLNGQKGALNGQGALNSQEEEEVIVTEVGQRDSEDVSKRDSDKEMATKSAVVHDITDDGQEETPEIIEQIPSSESNLEELTQPTESQANDIGFKKVFKFVGFKFTVKKDKTEKPDTVQLLTVKKDEGEGAAGAGDHKDPSLGAGEAASKESEPKQSTEKPEETLKREQSHAEISPPAESGQAVEECKEEGEEKQEKEPSKSAESPTSPVTSETGSTFKKFFTQGWAGWRKKTSFRKPKEDEVEASEKKKEQEPEKVDTEEDGKAEVASEKLTASEQAHPQEPAESAHEPRLSAEYEKVELPSEEQVSGSQGPSEEKPAPLATEVFDEKIEVHQEEVVAEVHVSTVEERTEEQKTEVEETAGSVPAEELVEMDAEPQEAEPAKELVKLKETCVSGEDPTQGADLSPDEKVLSKPPEGVVSEVEMLSSQERMKVQGSPLKKLFTSTGLKKLSGKKQKGKRGGGDEESGEHTQVPADSPDSQEEQKGESSASSPEEPEEITCLEKGLAEVQQDGEAEEGATSDGEKKREGVTPWASFKKMVTPKKRVRRPSESDKEDELDKVKSATLSSTESTASEMQEEMKGSVEEPKPEEPKRKVDTSVSWEALICVGSSKKRARRGSSSDEEGGPKAMGGDHQKADEAGKDKETGTDGILAGSQEHDPGQGSSSPEQAGSPTEGEGVSTWESFKRLVTPRKKSKSKLEEKSEDSIAGSGVEHSTPDTEPGKEESWVSIKKFIPGRRKKRPDGKQEQAPVEDAGPTGANEDD
notes: AKAP12, human, N-terminal fragment, residues 1-840, in pET28b(+); also called N-terminal (1-840) fragment of AKAP12; source: E. coli, purified (Ni-NTA)
stoichiometry N [1]: 2
